Measurements taken from patent publication US20030232013A1, “Therapeutic and diagnostic targeting of cancers cells with tumor homing peptides” (priority 2002, published 2003).
Read-outs that look alike come from different tables or passages of the source. Bridge positions count the residues as written; N and C are the ends. Peptide text beside a SMILES is read from it. * marks the point of attachment. DOTA = O=C(O)CN1CCN(CC(=O)O)CCN(CC(=O)*)CCN(CC(=O)O)CC1; Ahx = NCCCCCC(=O)O

Experiment: In vivo biodistribution in MB-231 tumor bearing SCID mice
Conditions: female, ICR SCID, mouse, iv, total radioactivity; for tissue uptake at 1 h / dose excreted at 1 h: 1 hour post-injection; for tissue uptake at 24 h / dose excreted at 24 h: 24 hours post-injection
Source text: In vivo iodistribution studies. Four- to 5-week old female ICR SCID ([…]) outbred mice were obtained from Taconic (Germantown, N.Y.). The mice were housed five animals per cage in sterile micro isolator cages in a temperature- and humidity-controlled room with a 12-hour light/12-hour dark schedule. The animals were fed autoclaved rodent chow (Ralston Purina Company, St. Louis, Mo.) and water ad libitum. Animals were housed one week prior to inoculation of tumor cells and anesthetized for injections with isoflurane (Baxter Healthcare Corp., Deerfield, Ill.) at a rate of 2.5% with 0.4L oxygen through a non-rebreathing anesthesia vaporizer.
Human breast cancer MB231 and T47D cells were injected on the bilateral subcutaneous (s.c.) flank with ˜5×10^6 cells in a suspension of 100 μl normal sterile saline per injection site. MB231 and T47D cells were allowed to grow in vivo two to three weeks post inoculation developing tumors ranging in sizes from 0.02-1.30 grams. The biodistribution and uptake of ^111In-DOTA-Phe^19-STh or ^111In-DOTA-6-Ahx-Phe^19-STh in tumor bearing SCID mice was studied. The mice (average weight, 25 g) were injected with aliquots (50-100 μl) of the radiolabeled peptide solution (55-75 kBq) in each animal via the tail vein. Tissues, organs and tumors were excised from the animals sacrificed at 1 hr, 4 hrs and 24 hrs p.i. For blocking studies, an access of non-radioactive 6-Ahx-Phe^19-STh (100 μg) was also injected along with the radiolabeled peptide solution. The radioactivity was measured in a NaI counter and the percent-injected dose per organ and the percent-injected dose per gram tissue were calculated (Tables 5 and 6). Animal studies were conducted in accordance with the highest standards of care as outlined in the NIH guide for Care and Use of Laboratory Animals and the Policy and Procedures for Animal Research at the Harry S. Truman Memorial VA Hospital and according to approved protocols.

## CC(C)C[C@@H]1NC(=O)[C@H](CCC(=O)O)NC(=O)[C@@H]2CSSC[C@@H]3NC(=O)[C@H](C)NC(=O)[C@@H]4CCCN4C(=O)[C@H](CC(N)=O)NC(=O)[C@H](CSSC[C@H](NC(=O)[C@H](Cc4ccc(O)cc4)NC(=O)[C@H](CC(N)=O)NC(=O)[C@H](CO)NC(=O)[C@H](CO)NC(=O)[C@H](CC(N)=O)NC(=O)CCCCCNC(=O)CN4CCN(CC(=O)O)CCN(CC(=O)O)CCN(CC(=O)O)CC4)C(=O)N2)NC(=O)[C@H](CSSC[C@@H](C(=O)N[C@@H](Cc2ccccc2)C(=O)O)NC(=O)CNC(=O)[C@H]([C@@H](C)O)NC3=O)NC1=O [^111In-DOTA-6-Ahx-Phe^19-STh, metal not drawn] ({DOTA-Ahx}-NSSNYCCELCCNPACTGCF-OH; disulfide 6-11, 7-15, 10-18)
MB-231 tumor, MB-231 tumor, Blocking (100 μg non-radioactive 6-Ahx-Phe^19-STh co-injected), n = 4, read-out: biodistribution, Tumor
  tissue uptake at 1 h: 0.84 ± 0.3 %ID/g
MB-231 tumor, MB-231 tumor, n = 5, read-out: biodistribution, Tumor
  tissue uptake at 1 h: 0.7 ± 0.16 %ID/g
MB-231 tumor, MB-231 tumor, 4 hours post-injection, n = 5, read-out: biodistribution, Tumor
  tissue uptake at 4 h: 0.24 ± 0.12 %ID/g
MB-231 tumor, MB-231 tumor, n = 4, read-out: biodistribution, Tumor
  tissue uptake at 24 h: 0.13 ± 0.16 %ID/g
blood, Blocking (100 μg non-radioactive 6-Ahx-Phe^19-STh co-injected), n = 4, read-out: biodistribution, Blood
  tissue uptake at 1 h: 0.85 ± 0.31 %ID/g
blood, n = 5, read-out: biodistribution, Blood
  tissue uptake at 1 h: 0.57 ± 0.13 %ID/g
blood, 4 hours post-injection, n = 5, read-out: biodistribution, Blood
  tissue uptake at 4 h: 0.04 ± 0.05 %ID/g
blood, n = 4, read-out: biodistribution, Blood
  tissue uptake at 24 h: 0.01 ± 0.02 %ID/g
faeces, n = 4, read-out: biodistribution, Feces (Avg % ID)
  dose excreted at 24 h: 14.2 ± 17.3%
heart, Blocking (100 μg non-radioactive 6-Ahx-Phe^19-STh co-injected), n = 4, read-out: biodistribution, Heart
  tissue uptake at 1 h: 0.24 ± 0.11 %ID/g
heart, n = 5, read-out: biodistribution, Heart
  tissue uptake at 1 h: 0.14 ± 0.03 %ID/g
heart, 4 hours post-injection, n = 5, read-out: biodistribution, Heart
  tissue uptake at 4 h: 0.06 ± 0.06 %ID/g
heart, n = 4, read-out: biodistribution, Heart
  tissue uptake at 24 h: 0.03 ± 0.03 %ID/g
kidney, Blocking (100 μg non-radioactive 6-Ahx-Phe^19-STh co-injected), n = 4, read-out: biodistribution, Kidney
  tissue uptake at 1 h: 12.8 ± 2.01 %ID/g
kidney, n = 5, read-out: biodistribution, Kidney
  tissue uptake at 1 h: 4.98 ± 0.67 %ID/g
kidney, 4 hours post-injection, n = 5, read-out: biodistribution, Kidney
  tissue uptake at 4 h: 4.96 ± 0.5 %ID/g
kidney, n = 4, read-out: biodistribution, Kidney
  tissue uptake at 24 h: 2.94 ± 0.42 %ID/g
Large intestine, Blocking (100 μg non-radioactive 6-Ahx-Phe^19-STh co-injected), n = 4, read-out: biodistribution, Large Intestine
  tissue uptake at 1 h: 0.17 ± 0.03 %ID/g
Large intestine, n = 5, read-out: biodistribution, Large Intestine
  tissue uptake at 1 h: 0.37 ± 0.05 %ID/g
Large intestine, 4 hours post-injection, n = 5, read-out: biodistribution, Large Intestine
  tissue uptake at 4 h: 0.66 ± 0.52 %ID/g
Large intestine, n = 4, read-out: biodistribution, Large Intestine
  tissue uptake at 24 h: 1.5 ± 2.59 %ID/g
liver, Blocking (100 μg non-radioactive 6-Ahx-Phe^19-STh co-injected), n = 4, read-out: biodistribution, Liver
  tissue uptake at 1 h: 0.33 ± 0.06 %ID/g
liver, n = 5, read-out: biodistribution, Liver
  tissue uptake at 1 h: 0.2 ± 0.03 %ID/g
liver, 4 hours post-injection, n = 5, read-out: biodistribution, Liver
  tissue uptake at 4 h: 0.09 ± 0.02 %ID/g
liver, n = 4, read-out: biodistribution, Liver
  tissue uptake at 24 h: 0.05 ± 0.02 %ID/g
lung, Blocking (100 μg non-radioactive 6-Ahx-Phe^19-STh co-injected), n = 4, read-out: biodistribution, Lung
  tissue uptake at 1 h: 0.49 ± 0.12 %ID/g
lung, n = 5, read-out: biodistribution, Lung
  tissue uptake at 1 h: 0.31 ± 0.04 %ID/g
lung, 4 hours post-injection, n = 5, read-out: biodistribution, Lung
  tissue uptake at 4 h: 0.08 ± 0.05 %ID/g
lung, n = 4, read-out: biodistribution, Lung
  tissue uptake at 24 h: 0.01 ± 0.02 %ID/g
muscle, Blocking (100 μg non-radioactive 6-Ahx-Phe^19-STh co-injected), n = 4, read-out: biodistribution, Muscle
  tissue uptake at 1 h: 0.1 ± 0.08 %ID/g
muscle, n = 5, read-out: biodistribution, Muscle
  tissue uptake at 1 h: 0.1 ± 0.08 %ID/g
muscle, 4 hours post-injection, n = 5, read-out: biodistribution, Muscle
  tissue uptake at 4 h: 0.04 ± 0.05 %ID/g
muscle, n = 4, read-out: biodistribution, Muscle
  tissue uptake at 24 h: 0.02 ± 0.04 %ID/g
pancreas, Blocking (100 μg non-radioactive 6-Ahx-Phe^19-STh co-injected), n = 4, read-out: biodistribution, Pancreas
  tissue uptake at 1 h: 0.21 ± 0.04 %ID/g
pancreas, n = 5, read-out: biodistribution, Pancreas
  tissue uptake at 1 h: 0.13 ± 0.03 %ID/g
pancreas, 4 hours post-injection, n = 5, read-out: biodistribution, Pancreas
  tissue uptake at 4 h: 0.05 ± 0.02 %ID/g
pancreas, n = 4, read-out: biodistribution, Pancreas
  tissue uptake at 24 h: 0.03 ± 0.02 %ID/g
Small intestine, Blocking (100 μg non-radioactive 6-Ahx-Phe^19-STh co-injected), n = 4, read-out: biodistribution, Small Intestine
  tissue uptake at 1 h: 0.85 ± 1.19 %ID/g
Small intestine, n = 5, read-out: biodistribution, Small Intestine
  tissue uptake at 1 h: 0.99 ± 0.18 %ID/g
Small intestine, 4 hours post-injection, n = 5, read-out: biodistribution, Small Intestine
  tissue uptake at 4 h: 0.28 ± 0.07 %ID/g
Small intestine, n = 4, read-out: biodistribution, Small Intestine
  tissue uptake at 24 h: 0.21 ± 0.13 %ID/g
spleen, Blocking (100 μg non-radioactive 6-Ahx-Phe^19-STh co-injected), n = 4, read-out: biodistribution, Spleen
  tissue uptake at 1 h: 0.12 ± 0.14 %ID/g
spleen, n = 5, read-out: biodistribution, Spleen
  tissue uptake at 1 h: 0.15 ± 0.1 %ID/g
spleen, 4 hours post-injection, n = 5, read-out: biodistribution, Spleen
  tissue uptake at 4 h: 0.05 ± 0.05 %ID/g
spleen, n = 4, read-out: biodistribution, Spleen
  tissue uptake at 24 h: 0.02 ± 0.04 %ID/g
stomach, Blocking (100 μg non-radioactive 6-Ahx-Phe^19-STh co-injected), n = 4, read-out: biodistribution, Stomach
  tissue uptake at 1 h: 2.18 ± 3.69 %ID/g
stomach, n = 5, read-out: biodistribution, Stomach
  tissue uptake at 1 h: 0.31 ± 0.33 %ID/g
stomach, 4 hours post-injection, n = 5, read-out: biodistribution, Stomach
  tissue uptake at 4 h: 0.03 ± 0.01 %ID/g
stomach, n = 4, read-out: biodistribution, Stomach
  tissue uptake at 24 h: 0.09 ± 0.09 %ID/g
urine, Blocking (100 μg non-radioactive 6-Ahx-Phe^19-STh co-injected), n = 4, read-out: biodistribution, Urine (Avg % ID)
  dose excreted at 1 h: 87.4 ± 4.5%
urine, n = 5, read-out: biodistribution, Urine (Avg % ID)
  dose excreted at 1 h: 89.4 ± 2.9%
urine, 4 hours post-injection, n = 5, read-out: biodistribution, Urine (Avg % ID)
  dose excreted at 4 h: 95.8 ± 1.4%
urine, n = 4, read-out: biodistribution, Urine (Avg % ID)
  dose excreted at 24 h: 82.5 ± 20.3%
